Reference: US20230295327A1 (KANAPH THERAPEUTICS, published 2023)

T1: human CD20 on Raji and Ramos cells (human, UniProt P11836 1-297)
T1 sequence (looked up): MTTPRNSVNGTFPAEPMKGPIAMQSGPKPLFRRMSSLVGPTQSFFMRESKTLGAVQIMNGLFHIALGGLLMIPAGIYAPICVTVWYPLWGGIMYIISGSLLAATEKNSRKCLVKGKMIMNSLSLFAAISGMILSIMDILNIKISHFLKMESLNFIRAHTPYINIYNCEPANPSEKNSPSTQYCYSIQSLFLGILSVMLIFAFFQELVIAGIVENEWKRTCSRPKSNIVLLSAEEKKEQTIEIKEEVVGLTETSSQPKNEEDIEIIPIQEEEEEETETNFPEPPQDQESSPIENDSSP


What was measured:
[1] = biological target: IL-12 receptor of human T cells (human, UniProt P42701 24-662; Q99665 24-862); assay: cell-based or functional assay
Sequence of IL-12 receptor of human T cells (Q99665 24-862, chain 2 of 2, other chains not shown): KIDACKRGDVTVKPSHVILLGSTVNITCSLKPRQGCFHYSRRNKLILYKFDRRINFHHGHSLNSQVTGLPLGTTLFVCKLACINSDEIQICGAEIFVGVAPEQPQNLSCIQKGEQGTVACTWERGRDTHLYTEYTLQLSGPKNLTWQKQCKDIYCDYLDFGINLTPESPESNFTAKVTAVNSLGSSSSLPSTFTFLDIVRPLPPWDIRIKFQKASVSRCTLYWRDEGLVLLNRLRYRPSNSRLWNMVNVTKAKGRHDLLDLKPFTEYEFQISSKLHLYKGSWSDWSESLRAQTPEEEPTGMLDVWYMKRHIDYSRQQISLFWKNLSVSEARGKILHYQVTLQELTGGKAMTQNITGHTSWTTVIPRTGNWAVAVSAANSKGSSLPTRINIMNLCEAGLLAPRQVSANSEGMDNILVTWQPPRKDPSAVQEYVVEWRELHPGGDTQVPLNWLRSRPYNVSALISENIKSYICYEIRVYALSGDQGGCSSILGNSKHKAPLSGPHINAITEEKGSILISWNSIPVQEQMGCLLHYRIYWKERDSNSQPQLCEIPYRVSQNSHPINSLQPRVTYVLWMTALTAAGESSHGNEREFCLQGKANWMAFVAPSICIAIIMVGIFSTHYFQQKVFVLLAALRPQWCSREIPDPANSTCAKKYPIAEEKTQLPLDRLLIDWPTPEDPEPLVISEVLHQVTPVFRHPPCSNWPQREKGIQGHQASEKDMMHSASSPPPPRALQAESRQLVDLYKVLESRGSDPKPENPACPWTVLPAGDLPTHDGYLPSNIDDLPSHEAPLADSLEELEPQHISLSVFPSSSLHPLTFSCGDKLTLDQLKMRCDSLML

[2] = biological target: T1, human CD20 on Raji and Ramos cells; assay: cell-based or functional assay

p-STAT4 (Tyr693) AlphaLISA in activated human T cells, EC50 [1] [ng/mL] | ADCC Reporter Bioassay on Raji target cells, 50% effective concentration (EC50) [2] [ng/mL] | Binder
0.555 |  | T2.01 (anti-hu CD20/hu IL-12, hu IgG1) (bispecific antibody) heavy: not shown light: QIVLSQSPAILSASPGEKVTMTCRASSSVSYIHWFQQKPGSSPKPWIYATSNLASGVPVRFSGSGSGTSYSLTISRVEAEDAATYYCQQWTSNPPTFGGGTKLEIKRTVAAPSVFIFPPSDEQLKSGTASVVCLLNNFYPREAKVQWKVDNALQSGNSQESVTEQDSKDSTYSLSSTLTLSKADYEKHKVYACEVTHQGLSSPVTKSFNRGEC not shown
1.55 |  | T2.02 (anti-hu CD20/hu IL-12 mut1, hu IgG1) (bispecific antibody) heavy: not shown light: QIVLSQSPAILSASPGEKVTMTCRASSSVSYIHWFQQKPGSSPKPWIYATSNLASGVPVRFSGSGSGTSYSLTISRVEAEDAATYYCQQWTSNPPTFGGGTKLEIKRTVAAPSVFIFPPSDEQLKSGTASVVCLLNNFYPREAKVQWKVDNALQSGNSQESVTEQDSKDSTYSLSSTLTLSKADYEKHKVYACEVTHQGLSSPVTKSFNRGEC not shown
 | 31100 | Rituximab (anti-hu CD20 monoclonal antibody) (antibody, human IgG1, kappa, V domains shown) VH: QVQLQQPGAELVKPGASVKMSCKASGYTFTSYNMHWVKQTPGRGLEWIGAIYPGNGDTSYNQKFKGKATLTADKSSSTAYMQLSSLTSEDSAVYYCARSTYYGGDWYFNVWGAGTTVTVSA VL: QIVLSQSPAILSASPGEKVTMTCRASSSVSYIHWFQQKPGSSPKPWIYATSNLASGVPVRFSGSGSGTSYSLTISRVEAEDAATYYCQQWTSNPPTFGGGTKLEIKR
